Experimental data as given in patent publication US6835382B2, “Ii peptide therapeutics to enhance antigen presentation” (University of Massachusetts, priority 1996, dated 2004).

Experiments:
[1] = molecular target: T1, murine A^k MHC class II allele (Mus musculus, UniProt P01910+P06343); experiment: simultaneous assay, A^k allele (CH27 APC, 3A9 T hybridoma, HEL46-61); assay type: cell-based; details: Table 2; for activity in simultaneous assay in the A^k system, in words: 64 μM; for Times Baseline Response, A^k: AE peptide 64 μM, 0.05 μM HEL46-61, supernatant 1:2
T1 construct: The A20 and CH27 B cell lymphoma lines express H-2^d and H-2^k alleles, respectively; endogenous in cells; host or cells: CH27 B cell lymphoma (mitomycin C-treated)
Procedure: (§1) In the “simultaneous assay” the four components of the assay are cultured together for a 24 h period. The components of this primary culture, added at the same time or simultaneously, are: (a) the antigenic peptide, (b) mitomycin C-treated, MHC class II-positive antigen presenting cells (APC) with the MHC class II allele required for binding of the specific antigenic peptide and its presentation to the antigenic peptide-specific T cell hybridoma, (c) an AE101 series effector peptide, and (d) MHC class II allele-restricted T cell hybridoma specific for the antigenic peptide and the MHC class II allele restricting its presentation. At the end of the incubation of this primary culture, an aliquot of its supernatant is transferred into a second culture well for incubation with an interleukin-dependent lymphoblastoid cell line. The degree of stimulation of that second, indicator cell by the interleukins which had been released from the activated T cell hybridoma in the primary culture is measured by quantitating tritiated thymidine deoxyribose {[^3H]TdR} uptake into the DNA of the HT-2 indicator cells of that second culture.
(§2) For these various assays, the following antigenic peptides were used: HEL11-25, hen egg lysozyme 11-25, AMKRHGLDNYRGYSL(A^d) (SEQ ID NO:5); HEL46-61, hen egg lysozyme 46-61, NTDGSTDYGILQINSR(Ak) (SEQ ID NO:6); HEL106-116, hen egg lysozyme 106-116, NAWVAWRNRCK (E^d) (SEQ ID NO:7); PGCC81-104, pigeon cytochrome c 81-104, […] (Ek) (SEQ ID NO:8), and THMCC82-103, tobacco hornworm moth cytochrome c 82-103, […] (Ek) (SEQ ID NO:9). AE101 series peptides were obtained from commercial sources. In general, the purity and composition of each peptide was confirmed by HPLC separation and mass spectrometry. The native protein antigens were HEL, hen egg lysozyme, and PGCC, pigeon cytochrome C. They were obtained from commercial sources.
(§3) For the experiments of these Examples, several T cell hybridomas, which are specific for certain antigenic peptides, were used. The TPc9.1 T hybridoma is specific for pigeon cytochrome C 81-104 peptide presented on the murine class II MHC allele E^k. The TPc9.1 hybridoma responds heteroclitically to tobacco hornworm moth cytochrome c 82-103 on E^k. The 3A9 T hybridoma is specific for hen egg lysozyme 46-61 on A^k. The 9.30.B2 hybridoma is specific for hen egg lysozyme 11-25 on A^d, and the G28.C9 hybridoma is specific for hen egg lysozyme 106-116 on E^d. The A20 and CH27 B cell lymphoma lines express H-2^d and H-2^k alleles, respectively.
(§4) Antigenic peptide-specific T cell activation was measured by the following procedure. Mitomycin C-treated A20 cells (A^dE^d) or CH27 cells APC (A^kE^k) were generated by incubating 5×10^6 cells/mL for 20 min at 37° C. with 0.025 mg/mL of mitomycin C (Sigma) in Dulbecco's Modified Eaglel's Medium (DMEM)/10 mM N-2(hydroxyethylpiperazine-N″[2-ethanesulfonic acid] (HEPES), followed by two washes with four volumes of DMEM-5% fetal calf serum (FCS), 10 mM HEPES. Fixed APC were generated by treating 1×10^6 cells/mL for 5 min with 0.5% paraformaldehyde in PBS (pH 7.2), followed by two washes with four volumes of DMEM-10% FCS, 10 mM HEPES. T cell hybridomas were irradiated 2200 rads before each assay.
(§5) For the “simultaneous assay”, 5×10^4 mitomycin C-treated APC, 5×10^4 T hybridoma cells and a submaximal concentration of antigenic peptide were cultured with and without serial 4-fold dilutions of each AE101 series peptide, usually at 64 μM, 16 μM, 4 μM, and 1 μM, at pH 7.2-7.4, in complete DMEM-5% FCS, 10 mM HEPES, 1×nonessential amino acids (Sigma), 1 mM sodium pyruvate, 2 mM L-glutamine, 100 U/mL penicillin G, 100 μg/mL streptomycin sulfate, 5×10^−5 M 2-mercaptoethanol (2-ME). Wells containing only T hybridoma cells (T)+APC were included to monitor for background T cell activation; and wells containing T+APC+AE101 series peptide were included to monitor for non-specific T hybridoma activation by each AE101 series peptide. […]

[2] = molecular target: T2, murine A^d MHC class II allele (Mus musculus, UniProt P01921+P04228); experiment: simultaneous assay, A^d allele (A20 APC, 9.30.B2 T hybridoma, HEL11-25); assay type: cell-based; details: Table 2; for Times Baseline Response, A^d: AE peptide 64 μM, 0.05 μM HEL11-25, supernatant 1:2
T2 construct: The A20 and CH27 B cell lymphoma lines express H-2^d and H-2^k alleles, respectively; endogenous in cells; host or cells: A20 B cell lymphoma (mitomycin C-treated)
T2 sequence (P04228 24-256): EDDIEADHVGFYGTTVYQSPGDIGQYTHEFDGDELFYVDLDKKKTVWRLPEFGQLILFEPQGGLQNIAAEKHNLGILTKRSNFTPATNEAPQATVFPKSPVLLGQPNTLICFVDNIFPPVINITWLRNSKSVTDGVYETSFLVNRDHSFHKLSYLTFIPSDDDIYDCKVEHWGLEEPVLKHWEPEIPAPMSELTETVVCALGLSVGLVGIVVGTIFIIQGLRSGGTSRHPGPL
T2 sequence (P01921 28-265): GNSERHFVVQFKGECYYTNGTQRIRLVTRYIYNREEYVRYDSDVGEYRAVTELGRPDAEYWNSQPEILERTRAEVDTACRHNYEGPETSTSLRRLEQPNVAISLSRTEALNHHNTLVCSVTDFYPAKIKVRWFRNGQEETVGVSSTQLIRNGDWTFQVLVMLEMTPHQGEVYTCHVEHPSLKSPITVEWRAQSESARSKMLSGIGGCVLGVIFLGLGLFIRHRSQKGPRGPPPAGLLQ
Procedure: as §1, §2, §3, §4, §5

HLA-DR1 molecules [3] = molecular target: T3, HLA-DR1 molecules (Homo sapiens, UniProt P01903+P01911, A100R/D57E/F55L/F60I/F76Y/I96L/L162R/M171V/P40L/Q125E/R42F/V115G/Y59C); experiment: binding of biotin-labeled hMBP(90-102) to "empty" HLA-DR1 (assay IV); details: Table 39; AE101 series compound 64 μM; biotin-labeled hMBP(90-102) 50 μM, 37° C., 1 h; no enhancement = 1
T3 construct: The HLA-DR alpha gene was truncated after Asn^192 to remove transmembranal and cytoplasmic regions from the protein product; A gene coding for the HLA-DR1 beta chain was truncated after position Lys^198, again to delete the transmembranal region; made in house; host or cells: insect cell line printed as HS / H5 (Invitrogen), co-infected with two baculoviruses; concentrated culture supernatant captured on 12CA5 antibody

HLA-DR1 molecules [4] = experiment: exchange of biotinylated hMBP(90-102) into antigenic peptide-loaded HLA-DR1 (assay III); assay type: binding, human; details: Table 38; HLA-DR1 preloaded with unlabeled hMBP(90-102) 50 μM; exchange with biotin-labeled hMBP(90-102) 50 μM, 37° C., 1 h; fraction of positive control o.d.; no enhancement = 0.08

T1 sequence (P01910 24-256): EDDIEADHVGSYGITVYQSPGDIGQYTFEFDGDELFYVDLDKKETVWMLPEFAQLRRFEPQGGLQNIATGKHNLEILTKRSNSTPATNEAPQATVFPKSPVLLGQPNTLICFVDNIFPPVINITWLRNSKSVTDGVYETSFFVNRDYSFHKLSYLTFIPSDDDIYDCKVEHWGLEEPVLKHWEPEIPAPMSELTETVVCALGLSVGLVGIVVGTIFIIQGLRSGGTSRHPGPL
T1 sequence (P06343 28-263): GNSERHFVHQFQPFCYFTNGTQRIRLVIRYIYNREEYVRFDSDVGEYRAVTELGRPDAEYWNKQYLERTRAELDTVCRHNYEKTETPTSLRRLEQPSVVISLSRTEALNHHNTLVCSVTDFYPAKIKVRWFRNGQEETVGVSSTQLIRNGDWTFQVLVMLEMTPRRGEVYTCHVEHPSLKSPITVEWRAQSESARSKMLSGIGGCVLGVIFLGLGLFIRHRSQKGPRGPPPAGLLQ

activity in simultaneous assay in the A^k system, in words [1]	activity in simultaneous assay in the A^d system, in words ([2]; 64 μM)	Substance	Times Baseline Response, A^k [1]	Times Baseline Response, A^d [2]	Relative Enhancement (HLA-DR1 molecules [3])	Relative Binding (HLA-DR1 molecules [4])
inhibitory		Ac-LQLDSLRMKLPKSAK-NH2 [AE151]	0.5	1.1		
		Ac-SLRMKLPKSAK-NH2 [AE155]	1.0	0.8		
inhibitory		Ac-NLQLDSLRMKLPKSAK-NH2 [AE150]	0.0	1.0		
		Ac-DSLRMKLPKSAK-NH2 [AE154]	1.0	1.1		
		Ac-LRMK Y PK-NH2 (Ac-LRMKYPK-NH2; not fully specified; printed as Ac-LRMK Y PK-NH2) [AE235]			0.61	0.15
		Ac-LDSLRMKLPKSAK-NH2 [AE153]	1.0	1.2		
		YRMKLPKSAKPVSQMR [AE101]			2.66	0.31
inactive	not active	Ac-LRMKLPKSAK-NH2 [AE110]	0.8	0.7		
		Ac-YRMKLPKSAK-NH2 [AE109]	1.2	0.9		
inhibitory		Ac-QLDSLRMKLPKSAK-NH2 [AE152]	0.5	0.9		
		Ac-LR L KLPK-NH2 (Ac-LRLKLPK-NH2; not fully specified; printed as Ac-LR L KLPK-NH2) [AE206]			2.57	−0.13
